Measured values reported in patent US20220411514A1 (published 2022).
Positions count from the first letter of the chain named.

B1: IMT-001 (antibody, V domains shown)
VH: QVQLVQSGSELKKPGASVKVSCKASGYTFTNYGMNWVRQAPGQGLKWMGWINTNTGEPTYVEEFTGRFVFSLETSVSTAYLQISSLKAEDTAVYFCAPYDNFFAYWGQGTTVTVSS
VL: DIVLTQSPLSLPVTPGEPASISCRSSKSLLYKDGKTYLNWFLQKPGQSPQLLIYLMSTHASGVPDRFSGSGSGTDFTLKISRVEAEDVGVYYCQQLVDYPLTFGGGTKLEIKR
B2: 9H2.2H10 (antibody, V domains shown)
VH: QVQLQQPGAELVGPGSSVKLSCKASGYTFTNYWIHWVKQRPLQGLEWIGNIDPSDSETHYNQKFKDKATLTVDKSSSTAYMQLSSLTSEDSAVYYCARHGYYDYWGQGTTLTVSS
VL: DIVMTQSHKFMSTSVGDRVSITCKASQDVSTAVAWYQQKPGQSPKLLIYWASTRHTGVPDRFTGSGSGTDYTLTISSVQAEDLALYYCQQHYTTPLTFGAGTKLELKR
B3: 4A11.2B5 (antibody, V domains shown)
VH: QVQLQQSGPELVKPGASVKISCKASGYSFTNYYIHWVKQRPGQGLEWIGWIYPGSGNTNYNEKFKGKATLTADTSSSTTNMQLSSLTSEDSAVYYCSTAPGGFDVWGSGTTVTVSS
VL: DIVMTQAAFSNPVTLGTSASISCRSSKSLLHSDGITYLYWYLQRPGQSPQLLIYRMSNLASGVPDRFSGSGSGTDFTLRISRVEAEDVGVYYCAQMLEFPLTFGAGTKLELKR
B4: 13G4.2F8 (antibody, V domains shown)
VH: QVQLQQPGAELVKPGASVKLSCKASGYTFTSYWMHWVKQRPGQGLEWIGMIHPNSGSTDYNEKFKNKATLNVDKSSSTAYIQLSSLTSEDSAVYYCTRWGIYYYARDYWGQGTTLTVSS
VL: DIVMTQSQKFMSTSVGERVSITCKASQNVGTNVAWYQQKAGQSLELLIYGASNRHTGVPDRFTGSGSGTDFTLTITNVQSEDMTNYFCEQYSNFPLTFGAGTKLELKR
B5: 19D9.2E5 (antibody)
chain 1: QIQLVQSGPELKKPGETVKISCKASGYTFTTYGMGWVKQAPGKGLKWMGWINTYSGVPTYADDFKGRFAFSLETSTSTAYLQINNLKNEDMATYFCATPYEYDGAYWGQGTLVTVSA
chain 2: not shown
B6: 15F10.2D6 (antibody, V domains shown)
VH: EVQLVESGGGLVKPGGSLKLSCAASGFAFSSYAMSWVRQTPEKRLEWVATISDGGVYTYYTDHVKGRFTISRDNAEDNLYLQMSHLKSEDTAMYYCVRDGGYWGQGTTLTVSS
VL: DVLMTQTPLSLPVSLGDQASISCRSSQSIVHNNGNTYLEWYLQKPGQSPKLLIYKVSNRFSGVPDRFSGSGSGTDFTLKISRVEAEDLGVYYCFQGSHVPLTFGGGTKLELKR
B7: 7D8.2D8 (antibody, V domains shown)
VH: B6 VH with A28T, V56I, T61P, H63N, E76K, D77N, Y80F
VL: B6 VL with N32S, G105A
B8: 3B11.2G2 (antibody, V domains shown)
VH: QIQLVQSGPELKKPGETVKISCKTSGYKFKTYVMSWVKQAPGKALKWMGWINTYSGVPTYADDFKGRFAFSLETSASTAYLEIINLKNEDTATYFCARDGNYGDPMDYWGQGTSVTVSS
VL: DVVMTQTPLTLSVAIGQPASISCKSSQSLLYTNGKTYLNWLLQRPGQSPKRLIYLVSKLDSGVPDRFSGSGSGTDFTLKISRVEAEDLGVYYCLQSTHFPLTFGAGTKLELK
B9: 15G7.2A7 (antibody, V domains shown)
VH: EVQLQQSGPELVKPGASVKISCKASGYTFTDYYMNWVKQSHGKSLEWIGDINPNNGGTNYNQKFKGKATLTVDKSSSTAYMELRSLTSEDSAVYYCTSGYGFPYWGQGTLVTVSA
VL: DIQMNQSPSSLSASLGDTISITCRASQNINIWLSWYQQKPGNIPQLLIYKASNLHTGVPSRFSGSGSGTDFTLTISSLQPEDIATYYCLQGQSYPLTFGAGTKLVMKR
B10: 6H6.2D6 (antibody, V domains shown)
VH: QIQLVQSGPELKKPGETVKISCKASGYTFTTYGMSWVKQAPGKGLKWMAWINTYSGVPTYADDFKGRFAFSLETSASTAYLQINNLTNEDTATYFCARGPYAMDYWGQGTSVTVSS
VL: DIQMTQTTSSLSASLGDRVTISCSASQGISNYLNWYQQKPDGTVKLLIYYTSSLHSGVPSRFSGSGSGTDYSLTISNLEPEDIATYYCQQYSELPYTFGSGTKLEIKR
B11: 23H9.2E4 (antibody, V domains shown)
VH: B10 VH with G33A, A49G, F64L, T87K
VL: DIQMTQTTSSLSASLGDRVTISCSASQGINNYLNWYQQKPDGTVKLLIYYASSLHSGVPSRFSGSGSGTDYSLTISNLEPEDIATYYCQQYSQVPYTFGSGTKLEIK
B12: 19B5.2E6 (antibody, V domains shown)
VH: B10 VH with G33A, A49G, F64L, T87K
VL: B10 VL with S30N, T51A, E93Q, L94V
B13: IMT-006 (antibody, V domains shown)
VH: QVQLVQSGAEVKKPGASVKVSCKASGYSFTNYYMHWVRQAPGQRLEWMGWIYPGSGNTNYNEKFQGRVTITADTSASTAYMELSSLRSEDTAVYYCSTAPGGFDVWGQGTTVTVSS
VL: DIVMTQTPLSLSVTPGQPASISCKSSKSLLHSDGITYLYWYLQKPGQSPQLLIYRMSNLASGVPDRFSGSGSGTDFTLKISRVEAEDVGVYYCAQMLEFPLTFGQGTKLEIKR
B14: 4G2.2G6 (antibody, V domains shown)
VH: QIQLVQSGPDLKKPGETVKISCKASGYTFTTYVMSWVKQAPGKDLKWMGWINTHSGVPTYADDFKGRFDFSLETSANTAFLQINNLKNEDTATYFCTRDGNDGDAMDNWGQGTSVTVSS
VL: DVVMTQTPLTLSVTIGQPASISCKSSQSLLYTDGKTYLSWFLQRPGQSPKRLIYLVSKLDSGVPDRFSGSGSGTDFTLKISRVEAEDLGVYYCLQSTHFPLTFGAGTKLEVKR

Target: hGal-3 (UniProt P17931 2-250)
Sequence (P17931 2-250): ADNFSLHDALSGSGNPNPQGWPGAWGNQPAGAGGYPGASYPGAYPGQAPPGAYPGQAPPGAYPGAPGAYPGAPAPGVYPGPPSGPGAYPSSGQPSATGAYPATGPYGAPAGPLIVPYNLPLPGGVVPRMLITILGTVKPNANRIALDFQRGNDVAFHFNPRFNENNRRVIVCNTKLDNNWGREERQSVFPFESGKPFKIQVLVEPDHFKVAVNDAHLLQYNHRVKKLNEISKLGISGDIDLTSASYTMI
Assay: SPR

Binder | Kd [nM]
B1 | 6.09
B2 | 18.4
B3 | 5.22
B4 | 2.53
B5 | < 1
B6 | 2.06
B7 | 2.49
B8 | < 1
B9 | 11.3
B10 | 4.86
B11 | 4.26
B12 | < 1
B13 | 16.5
B14 | < 1
